From PMC6239184, “Dynamic association of human mRNP proteins with mitochondrial tRNAs in the cytosol”

B1: mt tRNALeu(UUR) (structured_RNA)
RNA: GUUAAGAUGGCAGAGCCCGGUAAUCGCAUAAAACUUAAAACUUUACAGUCAGAGGUUCAAUUCCUCUUCUUAACACCA
B2: mt tRNAGly (structured_RNA)
RNA: ACUCUUUUAGUAUAAAUAGUACCGUUAACUUCCAAUUAACUAGUUUUGACAACAUUCAAAAAAGAGUACCA

Tests used:
YBX3 = YBX3 (Homo sapiens, UniProt P16989 1-372); experiment: EMSA; EMSA: 1 fmol labeled RNA, 0.1-4 pmol protein, 5% native acrylamide gel; buffer, salt, pH, temperature not given (refers to Marnef et al. 2016); conditions: protein: recombinant, tags: Strep-tag (N-terminal, in 5' primer), Ni-NTA purified, tRNA fold
YBX3, sequence (P16989 whole entry): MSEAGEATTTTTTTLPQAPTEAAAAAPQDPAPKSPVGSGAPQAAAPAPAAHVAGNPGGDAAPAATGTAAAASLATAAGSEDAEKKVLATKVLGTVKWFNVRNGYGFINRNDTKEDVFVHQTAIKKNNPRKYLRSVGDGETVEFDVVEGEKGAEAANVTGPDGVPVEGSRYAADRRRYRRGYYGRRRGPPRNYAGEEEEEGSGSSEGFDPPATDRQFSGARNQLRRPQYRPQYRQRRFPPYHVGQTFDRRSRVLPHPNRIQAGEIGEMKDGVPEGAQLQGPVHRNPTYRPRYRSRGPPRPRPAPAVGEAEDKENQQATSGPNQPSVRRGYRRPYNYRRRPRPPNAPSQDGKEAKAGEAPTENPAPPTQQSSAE

YBX1 = YBX1 (Homo sapiens, UniProt P67809 1-324); experiment: as above; conditions: protein: recombinant, tags: Strep-tag (N-terminal, in 5' primer), Ni-NTA purified, tRNA fold
YBX1, sequence (P67809 whole entry): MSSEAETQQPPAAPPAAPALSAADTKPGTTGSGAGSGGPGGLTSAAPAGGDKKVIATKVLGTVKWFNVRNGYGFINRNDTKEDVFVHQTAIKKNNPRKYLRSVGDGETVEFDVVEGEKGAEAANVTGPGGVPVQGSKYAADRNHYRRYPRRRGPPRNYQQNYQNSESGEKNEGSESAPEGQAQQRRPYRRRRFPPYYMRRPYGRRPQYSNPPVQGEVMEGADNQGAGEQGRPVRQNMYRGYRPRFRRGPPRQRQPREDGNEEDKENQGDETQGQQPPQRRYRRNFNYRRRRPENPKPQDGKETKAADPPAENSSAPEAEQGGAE

| Binder | binding result (YBX3; label: internal 32P-CTP) | binding result (YBX1; label: internal 32P-CTP) | binding result (YBX3) | binding result (YBX1) |
| --- | --- | --- | --- | --- |
| B1 | binds | binds | – | – |
| B2 | – | – | binds | binds |
